The text below walks through data of PMC3378601 (PLoS Biology, 2012).

The experiment has as its target T1, Hsp42, yeast small heat shock protein (yeast, UniProt Q12329 1-375).
T1 construct: Hsp42, small heat shock protein of the yeast cytosol; also called sHsp; source: purified as described [28]; copies: 24
The experiment is described as follows: co-sedimentation; preassembled NM fibers (5 µM NM monomer) incubated 60 min at 25°C with Hsp26 or Hsp42 (10 µM); fibers recovered at 16,000 g for 30 min; pellet with or without a wash step, SDS-PAGE, Coomassie. The conditions noted are these: both partners purified.

T1 sequence (Q12329 whole entry): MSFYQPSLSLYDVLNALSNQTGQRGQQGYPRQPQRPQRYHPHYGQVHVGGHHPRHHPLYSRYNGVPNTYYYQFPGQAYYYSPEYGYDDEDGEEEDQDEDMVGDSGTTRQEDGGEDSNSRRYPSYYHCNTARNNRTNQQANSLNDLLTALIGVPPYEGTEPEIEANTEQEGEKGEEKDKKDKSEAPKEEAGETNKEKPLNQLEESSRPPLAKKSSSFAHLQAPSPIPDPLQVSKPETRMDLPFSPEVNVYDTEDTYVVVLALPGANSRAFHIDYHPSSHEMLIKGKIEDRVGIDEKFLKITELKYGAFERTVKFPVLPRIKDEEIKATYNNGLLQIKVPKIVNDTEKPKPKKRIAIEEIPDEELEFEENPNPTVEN

B1: NM, the prion domain (N and M domains) of the yeast translation termination factor Sup35, untagged (domain or fragment, UniProt P05453 1-253, looked up)
chain: MSDSNQGNNQQNYQQYSQNGNQQQGNNRYQGYQAYNAQAQPAGGYYQNYQGYSGYQQGGYQQYNPDAGYQQQYNPQGGYQQYNPQGGYQQQFNPQGGRGNYKNFNYNNNLQGYQAGFQPQSQGMSLNDFQKQQKQAAPKPKKTLKLVSSSGIKLANATKKVGTKPAESDKKEEEKSAETKEPTKEPTKVEEPVKKEEKPVQTEEKTEEKSELPKVEDLKISESTHNTNNANVTSADALIKEQEEEVDDEVVND
notes: Sup35, yeast translation termination factor; N domain (amino acids 1-123) plus M domain (amino acids 124-253) = NM; One construct used in several states: soluble NM, molten oligomers and preassembled amyloid fibers (assembled at 25°C with agitation in assembly buffer); With Hsp26 and Hsp42 it stood as preassembled fibers; also called untagged NM; NM fibers; source: purified as described [48]
B1: the binding result was “binds”.
